{"source": "paper PMC11417369", "about": "“DNA sequence and chromatin differentiate sequence-specific transcription factor binding in the human malaria parasite Plasmodium falciparum”"}
{"target": "T1, AP2-G D1 (Plasmodium falciparum, UniProt Q8I5I9 2123-2245)", "T1 sequence": "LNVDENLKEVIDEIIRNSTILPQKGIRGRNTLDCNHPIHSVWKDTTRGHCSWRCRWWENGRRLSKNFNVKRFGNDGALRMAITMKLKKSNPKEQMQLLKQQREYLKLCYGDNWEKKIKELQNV", "experiment": "gcPBM; about 25 ug protein; PBS, 1% milk, 0.2 mg/ml BSA, salmon testes DNA, 0.03% Triton X-100", "conditions": "tags: N-terminal GST (pGEX-4T-1), kept; label: surface-attached array probe"}
{"binder": "XGTACX_site3785 (dsDNA) DNA 1: ATATACATATGTGTGTGTACTTATATCACATTTTTG DNA 2: CAAAAATGTGATATAAGTACACACACATATGTATAT", "binding signal": "12 ln median PBM intensity, better of two orientations"}
{"binder": "XGTACX_site6064 (dsDNA) DNA 1: TAAAACATATAAAGGTGTACGCCTTTTTGTATCAAT DNA 2: ATTGATACAAAAAGGCGTACACCTTTATATGTTTTA", "binding signal": "12.6 ln median PBM intensity, better of two orientations"}
{"binder": "XGTACX_site7594 (dsDNA) DNA 1: AGACGTAATAATTGTTGTACATAAAAAAATAAGAAA DNA 2: TTTCTTATTTTTTTATGTACAACAATTATTACGTCT", "binding signal": "12.1 ln median PBM intensity, better of two orientations"}
{"binder": "XGTACX_site3663 (dsDNA) DNA 1: TTTTTTTCTTAAAGATGTACTTTTTTAAAATAATCT DNA 2: AGATTATTTTAAAAAAGTACATCTTTAAGAAAAAAA", "binding signal": "12 ln median PBM intensity, better of two orientations"}
{"binder": "XGTACX_site1814 (dsDNA) DNA 1: TTAAGAATATTTTCATGTACTCATTTTTTTTGTTAT DNA 2: ATAACAAAAAAAATGAGTACATGAAAATATTCTTAA", "binding signal": "12 ln median PBM intensity, better of two orientations"}
{"binder": "XGTACX_site1573 (dsDNA) DNA 1: TCCATTGTCACCTTTTGTACTTAAATTTTTTCCTCC DNA 2: GGAGGAAAAAATTTAAGTACAAAAGGTGACAATGGA", "binding signal": "11.9 ln median PBM intensity, better of two orientations"}
{"binder": "XGTACX_site2257 (dsDNA) DNA 1: CAAAATATACACACGTGTACACAAATATTTACAAAA DNA 2: TTTTGTAAATATTTGTGTACACGTGTGTATATTTTG", "binding signal": "12.6 ln median PBM intensity, better of two orientations"}
{"binder": "XGTACX_site1387 (dsDNA) DNA 1: AAAAAAAATTATATATGTACTTATTAATCCTTTTAT DNA 2: ATAAAAGGATTAATAAGTACATATATAATTTTTTTT", "binding signal": "12 ln median PBM intensity, better of two orientations"}
{"binder": "XGTACX_site8781 (dsDNA) DNA 1: TAAATAAATTTGCACTGTACGCAAAAAAAAAAAAGA DNA 2: TCTTTTTTTTTTTTGCGTACAGTGCAAATTTATTTA", "binding signal": "12.6 ln median PBM intensity, better of two orientations"}
{"binder": "XGTACX_site3520 (dsDNA) DNA 1: ATATATATATATATATGTACTTATTTATCGTATTAT DNA 2: ATAATACGATAAATAAGTACATATATATATATATAT", "binding signal": "11.9 ln median PBM intensity, better of two orientations"}
{"binder": "XGTACX_site7234 (dsDNA) DNA 1: ATTTCCTTTTTCTGTTGTACTCATAAAATAATATGT DNA 2: ACATATTATTTTATGAGTACAACAGAAAAAGGAAAT", "binding signal": "12.2 ln median PBM intensity, better of two orientations"}
{"binder": "XGTACX_site930 (dsDNA) DNA 1: ATACATATTAATATGTGTACACATTTTTATTTTTTT DNA 2: AAAAAAATAAAAATGTGTACACATATTAATATGTAT", "binding signal": "12.6 ln median PBM intensity, better of two orientations"}
{"binder": "XGTACX_site3287 (dsDNA) DNA 1: TTTTACAATATTTTGTGTACTTATATTATGAGCTTA DNA 2: TAAGCTCATAATATAAGTACACAAAATATTGTAAAA", "binding signal": "12.2 ln median PBM intensity, better of two orientations"}
{"binder": "XGTACX_site8843 (dsDNA) DNA 1: ATAATTATTTTCCCGTGTACTTATTTTTTTCAAGTA DNA 2: TACTTGAAAAAAATAAGTACACGGGAAAATAATTAT", "binding signal": "12.6 ln median PBM intensity, better of two orientations"}
{"binder": "XGTACX_site8830 (dsDNA) DNA 1: AAATGCTAAAAATAGAGTACAGATAACGAAAAGTGT DNA 2: ACACTTTTCGTTATCTGTACTCTATTTTTAGCATTT", "binding signal": "12.1 ln median PBM intensity, better of two orientations"}
{"binder": "XGTACX_site4032 (dsDNA) DNA 1: TTCATTTTTTATTATAGTACACATAATATTTGCAGA DNA 2: TCTGCAAATATTATGTGTACTATAATAAAAAATGAA", "binding signal": "12.3 ln median PBM intensity, better of two orientations"}
{"binder": "XGTACX_site4322 (dsDNA) DNA 1: TTACGATACTTTAGGTGTACACAAATATACATGAAT DNA 2: ATTCATGTATATTTGTGTACACCTAAAGTATCGTAA", "binding signal": "12.6 ln median PBM intensity, better of two orientations"}
{"binder": "XGTACX_site17 (dsDNA) DNA 1: TTTTACAAATATTACTGTACACATTTTCATATAATT DNA 2: AATTATATGAAAATGTGTACAGTAATATTTGTAAAA", "binding signal": "12.2 ln median PBM intensity, better of two orientations"}
{"binder": "XGTACX_site2541 (dsDNA) DNA 1: ACAGCTACCAGATACTGTACTTTTCTCCAGACTGCA DNA 2: TGCAGTCTGGAGAAAAGTACAGTATCTGGTAGCTGT", "binding signal": "12.6 ln median PBM intensity, better of two orientations"}
{"binder": "XGTACX_site1944 (dsDNA) DNA 1: TTCAAAAATATATAATGTACACAAATATAAAAGAAT DNA 2: ATTCTTTTATATTTGTGTACATTATATATTTTTGAA", "binding signal": "12 ln median PBM intensity, better of two orientations"}
{"binder": "XGTACX_site3050 (dsDNA) DNA 1: ATATAATTTTTCAAGTGTACTTTTTTTTTTTAACAT DNA 2: ATGTTAAAAAAAAAAAGTACACTTGAAAAATTATAT", "binding signal": "12.7 ln median PBM intensity, better of two orientations"}
{"binder": "XGTACX_site5109 (dsDNA) DNA 1: TTTTTTTTTTTTTTTGGTACACATTTTGGTTAATGG DNA 2: CCATTAACCAAAATGTGTACCAAAAAAAAAAAAAAA", "binding signal": "12 ln median PBM intensity, better of two orientations"}
{"binder": "XGTACX_site1288 (dsDNA) DNA 1: TAAAGAGTCATGTGGTGTACCTGCTTCACCACATAT DNA 2: ATATGTGGTGAAGCAGGTACACCACATGACTCTTTA", "binding signal": "11.9 ln median PBM intensity, better of two orientations"}
{"binder": "XGTACX_site5662 (dsDNA) DNA 1: TTATTCTAAAAAGGGTGTACACAAACGAATGGAAAA DNA 2: TTTTCCATTCGTTTGTGTACACCCTTTTTAGAATAA", "binding signal": "12.6 ln median PBM intensity, better of two orientations"}
{"binder": "XGTACX_site8319 (dsDNA) DNA 1: AAAAAAATATTAATGTGTACATAATAATAACATATA DNA 2: TATATGTTATTATTATGTACACATTAATATTTTTTT", "binding signal": "11.9 ln median PBM intensity, better of two orientations"}
{"binder": "XGTACX_site8237 (dsDNA) DNA 1: TATAAAAATTAATATTGTACGTTTTATGAAAATAAA DNA 2: TTTATTTTCATAAAACGTACAATATTAATTTTTATA", "binding signal": "11.9 ln median PBM intensity, better of two orientations"}
{"binder": "XGTACX_site5322 (dsDNA) DNA 1: TATATATATATATGTAGTACTTTACAAAATAATTCG DNA 2: CGAATTATTTTGTAAAGTACTACATATATATATATA", "binding signal": "12.1 ln median PBM intensity, better of two orientations"}
{"binder": "XGTACX_site2176 (dsDNA) DNA 1: CTTCTTATTTTCTAATGTACGTACAAATCATTTATA DNA 2: TATAAATGATTTGTACGTACATTAGAAAATAAGAAG", "binding signal": "12.6 ln median PBM intensity, better of two orientations"}
{"binder": "XGTACX_site6582 (dsDNA) DNA 1: TTTCATTTTTTTACATGTACGCAAAAGTGTGTAGTT DNA 2: AACTACACACTTTTGCGTACATGTAAAAAAATGAAA", "binding signal": "12.6 ln median PBM intensity, better of two orientations"}
{"binder": "XGTACX_site3178 (dsDNA) DNA 1: CTTGAAAGATTTTATTGTACTCATAAGATACATTTC DNA 2: GAAATGTATCTTATGAGTACAATAAAATCTTTCAAG", "binding signal": "12.7 ln median PBM intensity, better of two orientations"}
{"binder": "XGTACX_site1238 (dsDNA) DNA 1: ATGTGCACATATAAAAGTACACGCACATATATATAT DNA 2: ATATATATATGTGCGTGTACTTTTATATGTGCACAT", "binding signal": "12.6 ln median PBM intensity, better of two orientations"}
{"binder": "XGTACX_site4165 (dsDNA) DNA 1: TTGTTTTTTTTTGGCTGTACGTTCATAAATTTTTTT DNA 2: AAAAAAATTTATGAACGTACAGCCAAAAAAAAACAA", "binding signal": "11.9 ln median PBM intensity, better of two orientations"}
{"binder": "XGTACX_site7381 (dsDNA) DNA 1: TATCTTTATATATAGTGTACACATTAAACAAATCTC DNA 2: GAGATTTGTTTAATGTGTACACTATATATAAAGATA", "binding signal": "12.4 ln median PBM intensity, better of two orientations"}
{"binder": "XGTACX_site6063 (dsDNA) DNA 1: ATGCATATATTTATGTGTACATATATTTGTAGGGGG DNA 2: CCCCCTACAAATATATGTACACATAAATATATGCAT", "binding signal": "12.6 ln median PBM intensity, better of two orientations"}
{"binder": "XGTACX_site622 (dsDNA) DNA 1: CTTTGTGTTAAAAGTAGTACACCAAAAATATGACTT DNA 2: AAGTCATATTTTTGGTGTACTACTTTTAACACAAAG", "binding signal": "12.7 ln median PBM intensity, better of two orientations"}
{"binder": "XGTACX_site1598 (dsDNA) DNA 1: CTAATAAAAAAAAAAAGTACATATGACAATATAAAG DNA 2: CTTTATATTGTCATATGTACTTTTTTTTTTTATTAG", "binding signal": "12.1 ln median PBM intensity, better of two orientations"}
{"binder": "XGTACX_site5884 (dsDNA) DNA 1: TCAAGTATTAAAATGGGTACATAAATATGTGTATAT DNA 2: ATATACACATATTTATGTACCCATTTTAATACTTGA", "binding signal": "12.1 ln median PBM intensity, better of two orientations"}
{"binder": "XGTACX_site8545 (dsDNA) DNA 1: TTACACATGTTTAACTGTACACATAATAGCAATATT DNA 2: AATATTGCTATTATGTGTACAGTTAAACATGTGTAA", "binding signal": "12.2 ln median PBM intensity, better of two orientations"}
{"binder": "XGTACX_site366 (dsDNA) DNA 1: TAATATTTCATTAGGTGTACACTACATAGTAGTAGA DNA 2: TCTACTACTATGTAGTGTACACCTAATGAAATATTA", "binding signal": "12.2 ln median PBM intensity, better of two orientations"}
{"binder": "XGTACX_site5339 (dsDNA) DNA 1: TATTTTTTACATTCGTGTACGCATTTTTGTGAATTT DNA 2: AAATTCACAAAAATGCGTACACGAATGTAAAAAATA", "binding signal": "12.7 ln median PBM intensity, better of two orientations"}
{"binder": "XGTACX_site6448 (dsDNA) DNA 1: AATTTATATGTTTTGTGTACACAATTTATTAAATTA DNA 2: TAATTTAATAAATTGTGTACACAAAACATATAAATT", "binding signal": "12.6 ln median PBM intensity, better of two orientations"}
{"binder": "XGTACX_site3357 (dsDNA) DNA 1: AATATCCACATTAGGAGTACACAGCTAACTGTTTGA DNA 2: TCAAACAGTTAGCTGTGTACTCCTAATGTGGATATT", "binding signal": "12.6 ln median PBM intensity, better of two orientations"}
{"binder": "XGTACX_site2641 (dsDNA) DNA 1: TATATATATTTAAGGTGTACATAAATAACAAAATAT DNA 2: ATATTTTGTTATTTATGTACACCTTAAATATATATA", "binding signal": "12.3 ln median PBM intensity, better of two orientations"}
